Data as given in IntAct's records for PubMed 21460856.

How the values were obtained:
atm_human ATM = atm_human ATM (UniProt Q13315)
mdm2_human MDM2 = mdm2_human MDM2 (UniProt Q00987)
Sequence of mdm2_human MDM2 (Q00987 whole entry, looked up): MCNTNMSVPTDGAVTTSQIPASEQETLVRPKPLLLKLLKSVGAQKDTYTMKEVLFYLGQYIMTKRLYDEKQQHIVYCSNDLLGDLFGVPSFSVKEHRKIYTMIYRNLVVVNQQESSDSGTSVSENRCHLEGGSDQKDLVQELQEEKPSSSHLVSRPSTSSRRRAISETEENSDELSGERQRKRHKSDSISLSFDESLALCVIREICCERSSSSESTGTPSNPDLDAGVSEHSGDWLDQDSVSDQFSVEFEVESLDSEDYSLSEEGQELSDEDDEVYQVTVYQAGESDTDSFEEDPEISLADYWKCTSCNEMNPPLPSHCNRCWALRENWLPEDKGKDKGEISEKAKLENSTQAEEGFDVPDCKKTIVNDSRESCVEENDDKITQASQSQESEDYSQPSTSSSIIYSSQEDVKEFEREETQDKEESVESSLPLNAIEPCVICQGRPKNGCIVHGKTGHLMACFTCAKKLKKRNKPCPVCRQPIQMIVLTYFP

Sequence of atm_human ATM (Q13315 whole entry): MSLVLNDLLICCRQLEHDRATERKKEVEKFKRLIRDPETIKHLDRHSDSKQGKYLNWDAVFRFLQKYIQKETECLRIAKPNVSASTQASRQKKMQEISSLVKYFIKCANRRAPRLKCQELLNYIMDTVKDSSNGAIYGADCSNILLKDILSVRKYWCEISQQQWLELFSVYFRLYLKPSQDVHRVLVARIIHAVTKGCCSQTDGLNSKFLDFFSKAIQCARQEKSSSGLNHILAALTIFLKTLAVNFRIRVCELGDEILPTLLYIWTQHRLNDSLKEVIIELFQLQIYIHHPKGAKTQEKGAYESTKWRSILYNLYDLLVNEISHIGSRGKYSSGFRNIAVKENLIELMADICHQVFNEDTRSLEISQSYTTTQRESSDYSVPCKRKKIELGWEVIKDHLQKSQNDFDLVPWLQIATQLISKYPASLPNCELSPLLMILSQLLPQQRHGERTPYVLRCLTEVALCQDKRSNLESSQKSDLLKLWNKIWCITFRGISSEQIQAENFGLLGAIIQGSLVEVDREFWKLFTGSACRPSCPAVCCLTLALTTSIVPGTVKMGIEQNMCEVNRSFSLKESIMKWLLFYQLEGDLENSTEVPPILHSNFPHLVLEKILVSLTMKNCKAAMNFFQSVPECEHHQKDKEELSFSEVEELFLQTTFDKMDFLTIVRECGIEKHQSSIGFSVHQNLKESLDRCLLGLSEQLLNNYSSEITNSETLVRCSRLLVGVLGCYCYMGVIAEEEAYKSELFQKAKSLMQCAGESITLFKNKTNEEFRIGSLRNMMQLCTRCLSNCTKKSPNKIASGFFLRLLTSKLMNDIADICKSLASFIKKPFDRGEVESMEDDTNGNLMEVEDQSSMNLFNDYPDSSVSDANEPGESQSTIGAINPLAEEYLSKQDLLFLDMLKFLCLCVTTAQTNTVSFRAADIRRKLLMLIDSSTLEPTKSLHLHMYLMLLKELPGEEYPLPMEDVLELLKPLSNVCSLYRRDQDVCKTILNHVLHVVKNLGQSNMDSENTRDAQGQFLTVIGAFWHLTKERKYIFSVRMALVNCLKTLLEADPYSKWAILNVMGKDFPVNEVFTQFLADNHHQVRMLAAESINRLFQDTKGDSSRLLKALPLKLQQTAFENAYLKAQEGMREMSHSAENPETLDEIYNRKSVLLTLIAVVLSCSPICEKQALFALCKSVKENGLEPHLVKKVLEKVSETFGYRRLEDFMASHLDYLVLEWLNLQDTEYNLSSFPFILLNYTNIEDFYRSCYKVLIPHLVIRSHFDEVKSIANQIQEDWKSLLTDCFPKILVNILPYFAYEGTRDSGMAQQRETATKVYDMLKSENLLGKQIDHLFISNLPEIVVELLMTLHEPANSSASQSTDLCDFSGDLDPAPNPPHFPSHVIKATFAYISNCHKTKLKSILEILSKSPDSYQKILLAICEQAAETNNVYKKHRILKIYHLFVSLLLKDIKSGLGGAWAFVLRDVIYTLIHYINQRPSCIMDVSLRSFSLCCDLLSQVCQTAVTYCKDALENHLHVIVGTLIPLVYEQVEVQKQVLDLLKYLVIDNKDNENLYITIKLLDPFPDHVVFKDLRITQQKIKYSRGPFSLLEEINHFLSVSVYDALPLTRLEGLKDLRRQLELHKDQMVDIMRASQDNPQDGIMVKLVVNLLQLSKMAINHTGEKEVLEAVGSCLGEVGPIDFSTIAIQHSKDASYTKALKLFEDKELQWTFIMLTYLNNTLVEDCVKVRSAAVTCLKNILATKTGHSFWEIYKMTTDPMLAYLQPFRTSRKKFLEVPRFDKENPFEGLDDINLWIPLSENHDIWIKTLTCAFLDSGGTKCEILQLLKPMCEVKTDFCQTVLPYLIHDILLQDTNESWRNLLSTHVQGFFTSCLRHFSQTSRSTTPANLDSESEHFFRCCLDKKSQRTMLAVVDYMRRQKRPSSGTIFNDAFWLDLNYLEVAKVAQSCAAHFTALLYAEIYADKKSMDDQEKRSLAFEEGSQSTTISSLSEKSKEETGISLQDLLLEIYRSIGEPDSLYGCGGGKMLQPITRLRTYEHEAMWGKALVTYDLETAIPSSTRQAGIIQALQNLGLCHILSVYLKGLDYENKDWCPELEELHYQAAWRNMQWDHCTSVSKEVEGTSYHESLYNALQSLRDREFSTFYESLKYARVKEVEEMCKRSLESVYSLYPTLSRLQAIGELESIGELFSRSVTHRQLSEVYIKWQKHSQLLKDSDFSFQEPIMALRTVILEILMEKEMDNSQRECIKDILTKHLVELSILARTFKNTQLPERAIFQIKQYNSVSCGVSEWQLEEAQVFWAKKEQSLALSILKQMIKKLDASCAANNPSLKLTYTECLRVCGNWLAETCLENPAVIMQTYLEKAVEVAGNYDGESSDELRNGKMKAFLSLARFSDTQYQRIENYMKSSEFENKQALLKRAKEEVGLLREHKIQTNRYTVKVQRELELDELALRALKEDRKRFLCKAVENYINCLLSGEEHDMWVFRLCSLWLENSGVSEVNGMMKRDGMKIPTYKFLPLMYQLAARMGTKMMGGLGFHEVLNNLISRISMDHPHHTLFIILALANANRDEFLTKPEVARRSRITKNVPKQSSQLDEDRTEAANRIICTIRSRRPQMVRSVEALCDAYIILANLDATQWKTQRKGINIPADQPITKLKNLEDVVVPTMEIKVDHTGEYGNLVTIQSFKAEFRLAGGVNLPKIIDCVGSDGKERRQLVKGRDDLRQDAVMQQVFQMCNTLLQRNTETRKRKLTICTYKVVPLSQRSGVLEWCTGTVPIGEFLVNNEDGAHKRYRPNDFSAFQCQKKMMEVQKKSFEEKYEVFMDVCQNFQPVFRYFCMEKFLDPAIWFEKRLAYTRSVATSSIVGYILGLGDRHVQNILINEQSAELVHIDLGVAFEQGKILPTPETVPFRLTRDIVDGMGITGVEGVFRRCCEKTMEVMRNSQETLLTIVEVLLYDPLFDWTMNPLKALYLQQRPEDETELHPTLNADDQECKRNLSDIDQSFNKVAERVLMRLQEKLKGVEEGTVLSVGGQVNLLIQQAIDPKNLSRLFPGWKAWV

Q: “Serine/threonine-protein phosphatase 2A 56 kDa regulatory subunit gamma isoform (Homo sapiens) (from UniProt Q13362-1) S520A” was tested. Which “effect of a mutation on the interaction” value (atm_human ATM) did it give?
A: disrupting interaction

Q: For “Serine-protein kinase ATM (Homo sapiens), Q13315 D2870A;N2875K”, which “effect of a mutation on the interaction” value (PPP2R5C, Q13362-1) is on record?
A: disrupting interaction

Q: Which “effect of a mutation on the interaction” value (mdm2_human MDM2) does the source give for “Serine/threonine-protein phosphatase 2A 56 kDa regulatory subunit gamma isoform (Homo sapiens) (from UniProt Q13362) S520D” here?
A: disrupting interaction
